Columns and labels:
[1] = molecular target: hPcf11 (in CF II);hClp1 (human;human) (UniProt O94913+Q92989); assay: filter binding; conditions: cap analog
hClp1 (human) = molecular target: T1, hClp1 (human) (UniProt Q92989); assay: filter binding; conditions: cap analog
T1 sequence: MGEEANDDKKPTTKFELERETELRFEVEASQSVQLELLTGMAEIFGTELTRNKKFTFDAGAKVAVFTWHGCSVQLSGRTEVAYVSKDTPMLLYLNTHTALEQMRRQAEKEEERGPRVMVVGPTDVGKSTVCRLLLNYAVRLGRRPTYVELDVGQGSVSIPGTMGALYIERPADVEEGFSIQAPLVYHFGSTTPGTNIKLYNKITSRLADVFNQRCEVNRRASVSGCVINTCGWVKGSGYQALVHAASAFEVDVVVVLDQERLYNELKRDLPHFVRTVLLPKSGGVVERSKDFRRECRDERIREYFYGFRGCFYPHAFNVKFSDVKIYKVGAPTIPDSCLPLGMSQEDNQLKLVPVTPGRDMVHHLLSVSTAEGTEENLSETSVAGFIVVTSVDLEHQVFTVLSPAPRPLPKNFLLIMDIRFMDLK

Chain of hPcf11 (in CF II);hClp1 (human;human) (O94913 whole entry, one chain of several): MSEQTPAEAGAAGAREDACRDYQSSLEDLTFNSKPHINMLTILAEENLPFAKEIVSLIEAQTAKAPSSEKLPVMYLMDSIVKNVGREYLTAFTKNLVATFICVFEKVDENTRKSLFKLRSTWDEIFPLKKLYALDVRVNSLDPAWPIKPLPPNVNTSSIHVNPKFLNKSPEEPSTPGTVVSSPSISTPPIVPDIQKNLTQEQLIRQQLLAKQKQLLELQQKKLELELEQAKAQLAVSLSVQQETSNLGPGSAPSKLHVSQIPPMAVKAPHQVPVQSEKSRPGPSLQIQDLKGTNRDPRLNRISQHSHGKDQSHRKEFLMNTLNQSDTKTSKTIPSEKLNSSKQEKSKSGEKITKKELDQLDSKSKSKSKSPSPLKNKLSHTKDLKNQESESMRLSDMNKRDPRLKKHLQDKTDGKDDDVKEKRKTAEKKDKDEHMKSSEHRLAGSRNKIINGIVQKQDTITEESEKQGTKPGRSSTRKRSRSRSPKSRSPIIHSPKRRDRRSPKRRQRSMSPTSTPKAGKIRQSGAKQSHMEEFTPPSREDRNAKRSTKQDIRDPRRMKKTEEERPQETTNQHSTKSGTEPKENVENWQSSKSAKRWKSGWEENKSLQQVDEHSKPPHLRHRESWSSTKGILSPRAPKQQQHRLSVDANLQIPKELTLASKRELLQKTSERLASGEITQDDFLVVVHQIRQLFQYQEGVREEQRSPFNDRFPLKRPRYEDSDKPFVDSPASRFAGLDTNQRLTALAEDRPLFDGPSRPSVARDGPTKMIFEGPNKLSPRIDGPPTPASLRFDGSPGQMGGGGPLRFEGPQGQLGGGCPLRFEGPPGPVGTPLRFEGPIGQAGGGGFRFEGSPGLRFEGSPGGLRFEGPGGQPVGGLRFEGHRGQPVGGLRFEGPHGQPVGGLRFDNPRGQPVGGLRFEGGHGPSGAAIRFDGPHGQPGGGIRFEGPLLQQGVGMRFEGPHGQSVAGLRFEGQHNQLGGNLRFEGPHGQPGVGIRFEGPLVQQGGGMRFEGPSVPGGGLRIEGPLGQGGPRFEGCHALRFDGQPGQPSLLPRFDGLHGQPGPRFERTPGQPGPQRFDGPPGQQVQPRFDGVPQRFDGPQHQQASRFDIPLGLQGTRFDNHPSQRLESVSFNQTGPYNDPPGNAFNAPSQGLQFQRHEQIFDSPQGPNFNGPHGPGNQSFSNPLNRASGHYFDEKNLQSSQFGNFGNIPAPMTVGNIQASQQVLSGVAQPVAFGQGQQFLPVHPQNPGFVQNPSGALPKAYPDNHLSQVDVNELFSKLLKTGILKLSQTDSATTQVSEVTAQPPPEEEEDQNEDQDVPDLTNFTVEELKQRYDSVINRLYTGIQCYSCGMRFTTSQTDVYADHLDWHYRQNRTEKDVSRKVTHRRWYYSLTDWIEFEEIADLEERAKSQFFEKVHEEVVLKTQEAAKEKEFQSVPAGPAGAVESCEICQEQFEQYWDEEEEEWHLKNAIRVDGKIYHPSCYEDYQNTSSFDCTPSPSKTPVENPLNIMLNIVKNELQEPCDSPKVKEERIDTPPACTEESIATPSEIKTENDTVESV

| Substance | K half [1] [nM] | K half (hClp1 (human)) [nM] |
| --- | --- | --- |
| SV40 late RNA | 0.4 | 140 |
| L3 RNA | 0.9 |  |

Reference: publication doi:10.1101/366336
